Measured values taken from article PMC12443421.

How the values were obtained:
KDM5A-K152E = molecular target: T1, KDM5A-K152E (UniProt P29375 1-801, K152E); experiment: EMSA; Nucleosome EMSA: 100 nM nucleosome, 50 mM HEPES pH 7.5, 50 mM KCl, 1 mM BME, 0.01% Tween-20, 0.01% BSA, 5% sucrose, 1 h on ice, gel at 4 C; DNA EMSA: 100 nM DNA, TE with 10% glycerol, gel at 4 C; conditions: protein: recombinant; tags: 6xHis removed by TEV; blunt
T1 sequence: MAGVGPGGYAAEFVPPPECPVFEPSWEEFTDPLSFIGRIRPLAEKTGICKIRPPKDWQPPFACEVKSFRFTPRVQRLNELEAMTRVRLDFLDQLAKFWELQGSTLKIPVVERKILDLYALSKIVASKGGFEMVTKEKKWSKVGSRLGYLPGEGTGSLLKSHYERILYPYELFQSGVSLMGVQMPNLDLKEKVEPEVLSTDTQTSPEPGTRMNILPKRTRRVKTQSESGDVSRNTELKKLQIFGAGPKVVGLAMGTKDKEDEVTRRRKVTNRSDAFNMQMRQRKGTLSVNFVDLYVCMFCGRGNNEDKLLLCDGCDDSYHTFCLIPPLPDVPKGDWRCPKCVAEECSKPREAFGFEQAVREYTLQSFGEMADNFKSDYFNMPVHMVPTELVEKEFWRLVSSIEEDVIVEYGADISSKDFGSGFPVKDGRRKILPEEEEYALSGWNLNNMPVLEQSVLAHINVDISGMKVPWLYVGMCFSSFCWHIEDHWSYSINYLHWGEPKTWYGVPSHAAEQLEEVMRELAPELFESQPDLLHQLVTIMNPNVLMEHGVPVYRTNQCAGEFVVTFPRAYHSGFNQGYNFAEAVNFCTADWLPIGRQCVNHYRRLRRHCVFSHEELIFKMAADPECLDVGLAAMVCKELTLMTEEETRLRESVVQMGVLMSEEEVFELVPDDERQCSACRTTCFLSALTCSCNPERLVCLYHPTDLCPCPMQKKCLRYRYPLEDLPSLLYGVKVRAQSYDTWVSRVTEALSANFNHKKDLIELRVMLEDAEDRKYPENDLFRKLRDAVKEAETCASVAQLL

KDM5A-MutR = molecular target: T2, KDM5A-MutR (UniProt P29375 1-801, R210A;R217A;R219A;R220A;R232A;R264A;R265A;R266A;R271A;R280A;R282A); experiment: as above; conditions: protein: recombinant; tags: 6xHis removed by TEV; blunt
T2 sequence: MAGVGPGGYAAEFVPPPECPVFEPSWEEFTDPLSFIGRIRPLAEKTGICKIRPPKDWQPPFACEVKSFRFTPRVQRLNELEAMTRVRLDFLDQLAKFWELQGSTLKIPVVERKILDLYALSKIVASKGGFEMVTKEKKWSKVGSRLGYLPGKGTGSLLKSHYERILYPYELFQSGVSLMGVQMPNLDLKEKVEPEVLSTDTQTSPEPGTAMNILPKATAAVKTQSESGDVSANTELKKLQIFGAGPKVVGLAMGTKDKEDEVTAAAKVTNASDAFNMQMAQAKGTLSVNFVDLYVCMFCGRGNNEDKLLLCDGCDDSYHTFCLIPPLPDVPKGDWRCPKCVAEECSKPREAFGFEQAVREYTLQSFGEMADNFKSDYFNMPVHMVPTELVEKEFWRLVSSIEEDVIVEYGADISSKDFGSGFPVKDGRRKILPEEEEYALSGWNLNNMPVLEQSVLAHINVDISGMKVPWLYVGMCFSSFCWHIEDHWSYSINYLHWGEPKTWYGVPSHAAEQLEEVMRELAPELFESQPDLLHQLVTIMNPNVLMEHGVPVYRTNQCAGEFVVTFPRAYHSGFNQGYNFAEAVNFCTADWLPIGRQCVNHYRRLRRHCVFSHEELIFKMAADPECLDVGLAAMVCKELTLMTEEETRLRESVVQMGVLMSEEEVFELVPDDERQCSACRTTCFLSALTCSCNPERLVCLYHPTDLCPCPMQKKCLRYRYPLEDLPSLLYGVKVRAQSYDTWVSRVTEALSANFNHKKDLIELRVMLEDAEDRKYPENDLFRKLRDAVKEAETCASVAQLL

B1: ARID-C1 (dsDNA)
DNA 1: GGGCTCCCGCCCCACGAAAAG
DNA 2: CTTTTCGTGGGGCGGGAGCCC
KDM5A-K152E
  binding signal: ~3 fold lower affinity than KDM5A-CAT
KDM5A-MutR
  binding signal: ~3 fold lower affinity than KDM5A-CAT
